US20190112393 (published 2019)
Positions count from the first letter of the chain named. Where two headings read alike, the source gives them in different places. Blank lines part the entries; values can stand above or below the binder they belong to.

Columns and labels:
human IL-6 receptor = target: T1, human IL-6 receptor (human, UniProt P08887); test: SPR, pH 7.4, 3 uM Ca, 37C
T1 chain: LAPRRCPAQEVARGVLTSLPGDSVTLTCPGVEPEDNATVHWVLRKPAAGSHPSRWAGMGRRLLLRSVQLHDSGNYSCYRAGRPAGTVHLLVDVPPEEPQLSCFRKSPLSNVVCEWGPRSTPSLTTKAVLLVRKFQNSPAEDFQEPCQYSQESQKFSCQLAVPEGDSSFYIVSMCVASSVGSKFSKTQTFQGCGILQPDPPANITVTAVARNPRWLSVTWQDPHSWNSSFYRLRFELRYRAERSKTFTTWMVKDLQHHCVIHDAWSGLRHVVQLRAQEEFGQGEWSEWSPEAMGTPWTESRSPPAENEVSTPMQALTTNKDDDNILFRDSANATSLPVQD

human FcγRIIb [1] = target: T2, human FcγRIIb (human, UniProt P31994); test: SPR
T2 chain: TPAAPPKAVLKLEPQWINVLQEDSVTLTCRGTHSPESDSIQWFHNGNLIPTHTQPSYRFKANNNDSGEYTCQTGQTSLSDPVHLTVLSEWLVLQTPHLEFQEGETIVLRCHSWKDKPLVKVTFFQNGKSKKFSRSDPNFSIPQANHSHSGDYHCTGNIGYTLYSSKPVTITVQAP

human FcγRIIa type H = target: T3, human FcγRIIa type H (human, UniProt P12318); test: SPR
T3 chain: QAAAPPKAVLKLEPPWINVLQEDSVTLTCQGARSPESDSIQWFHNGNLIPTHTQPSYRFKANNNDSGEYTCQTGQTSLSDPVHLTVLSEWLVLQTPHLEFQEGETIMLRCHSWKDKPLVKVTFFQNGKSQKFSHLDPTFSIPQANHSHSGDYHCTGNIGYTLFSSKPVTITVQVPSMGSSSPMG

human FcγRIa [2] = target: T4, human FcγRIa (human, UniProt P12314); test: SPR
T4 chain: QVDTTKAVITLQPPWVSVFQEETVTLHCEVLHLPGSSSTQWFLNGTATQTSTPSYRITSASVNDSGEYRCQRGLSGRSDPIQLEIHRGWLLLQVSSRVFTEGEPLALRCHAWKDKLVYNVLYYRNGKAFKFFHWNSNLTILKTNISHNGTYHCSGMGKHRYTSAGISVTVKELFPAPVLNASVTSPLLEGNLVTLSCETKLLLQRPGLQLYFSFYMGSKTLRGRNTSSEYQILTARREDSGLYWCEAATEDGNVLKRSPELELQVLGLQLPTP

human FcγRIIb [3] = target: T2, human FcγRIIb; test: SPR
human FcγRIIb [4] = target: T2, human FcγRIIb; test: SPR
human FcγRIIb [5] = target: T2, human FcγRIIb; test: SPR
human FcγRIa [6] = target: T4, human FcγRIa; test: SPR
human FcγRIIb [7] = target: T2, human FcγRIIb; test: SPR
human FcγRIa [8] = target: T4, human FcγRIa; test: SPR
human FcγRIa [9] = target: T4, human FcγRIa; test: SPR
human FcγRIIb [10] = target: T2, human FcγRIIb; test: SPR
mouse FcγRIV = target: T5, mouse FcγRIV (mouse, UniProt A0A0B4J1G0); test: SPR
T5 chain: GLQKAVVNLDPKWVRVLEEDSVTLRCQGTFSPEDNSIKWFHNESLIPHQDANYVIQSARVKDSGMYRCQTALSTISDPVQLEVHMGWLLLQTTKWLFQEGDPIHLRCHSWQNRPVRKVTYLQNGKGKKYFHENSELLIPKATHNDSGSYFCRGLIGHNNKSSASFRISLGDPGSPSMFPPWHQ

mouse FcγRI = target: T6, mouse FcγRI (mouse, UniProt P26151); test: SPR
T6 chain: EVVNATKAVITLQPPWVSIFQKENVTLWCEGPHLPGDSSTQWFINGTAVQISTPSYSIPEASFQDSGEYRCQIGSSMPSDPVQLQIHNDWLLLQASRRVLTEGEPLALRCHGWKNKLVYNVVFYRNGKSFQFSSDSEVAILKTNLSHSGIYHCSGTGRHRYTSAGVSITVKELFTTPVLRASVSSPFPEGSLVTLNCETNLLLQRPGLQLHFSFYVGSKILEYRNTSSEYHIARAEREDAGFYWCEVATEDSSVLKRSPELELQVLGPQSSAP

Kd (human IL-6 receptor): > 31000 nM
B1: 6RL#9-IgG1 (antibody, V domains shown)
VH: QVQLVQSGAEVKKPGASVKVSCKASGYTFTSYYMHWVRQAPGQGLEWMGIINPSGGSTSYAQKFQGRVTMTRDTSTSTVYMELSSLRSEDTAVYYCARDDPGGGEYYFDYWGQGTLVTVSS
VL: QSVLTQPPSVSGAPGQRVTISCTGSRSNMGAGYDVHWYQLLPGAAPKLLISHNTHRPSGVPDRFSGSKSGASASLAITGLQAEDEADYYCQSHDSSLSAVVFGGGTKLTVLS

Kd (human FcγRIIb [1]): 4 nM
B2: BP464 (antibody)
chain 1: QVQLQESGPGLVKPSETLSLTCAVSGHSISHDHAWSWVRQPPGEGLEWIGFISYSGITNYNPSLQGRVTISRDNSKNTLYLQMNSLRAEDTAVYYCARSLARTTAMDYWGEGTLVTVSSASTKGPSVFPLAPSSKSTSGGTAALGCLVKDYFPEPVTVSWNSGALTSGVHTFPAVLQSSGLYSLSSVVTVPSSSLGTQTYICNVNHKPSNTKVDKKVEPKSCDKTHTCPPCPAPDLLGDDSVFLFPPKPKDTLMISRTPEVTCVVVDVAEEDGEVKFNWYVDGVEVHNAKTKPREEQYNSTYRVVSVLTVLHQDWLNGKEYKCKVSNKALPRPIEKTISKAKGQPREPQVYTLPPSRDELTKNQVSLTCLVKGFYPSDIAVEWESNGQPENNYKTTPYVLDSDGSFFLYSKLTVDKSRWQQGNVFSCSVMHEALHNHYTQESLSLSP
chain 2: not shown

Kd (human FcγRIIa type H): 1600 nM
B3: BP438 (antibody)
chain 1: B2 chain 1 with I334T, Y398P
chain 2: not shown

Kd (human FcγRIa [2]): 9 nM | Kd (human FcγRIIb [3]): 1000 nM
B4: 2B261 (antibody)
chain 1: B2 chain 1 with D239G, A269S, E270H, G273P, Y298D, R332A, Y398P
chain 2: not shown

Kd (human FcγRIIb [4]): 60 nM
B5: BP239 (antibody)
chain 1: B2 chain 1 with L236Y, A269Q, E270D, Y298D, K328A, Y398P
chain 2: not shown

Kd (human FcγRIa [2]): 10 nM
B6: BP182 (antibody)
chain 1: B2 chain 1 with D239G, A269S, E270H, Y298D, R332K, Y398P
chain 2: not shown

Kd (human FcγRIIb [5]): 100 nM
B7: BP350 (antibody)
chain 1: B2 chain 1 with A269E, R332A, Y398P
chain 2: not shown

Kd (human FcγRIa [6]): 0.6 nM
B8: BP456 (antibody)
chain 1: B2 chain 1 with Y398M
chain 2: not shown

Kd (human FcγRIa [6]): 0.9 nM
B9: BP447 (antibody)
chain 1: B2 chain 1 with Y398A
chain 2: not shown

Kd (human FcγRIIb [4]): 40 nM
B10: BP228 (antibody)
chain 1: B2 chain 1 with D235E, L236Y, A269Q, E270D, K328D, Y398P
chain 2: not shown

Kd (human FcγRIIb [5]): 100 nM
B11: BP367 (antibody)
chain 1: B2 chain 1 with A269S, E271D, R332A, Y398P
chain 2: not shown

Kd (human FcγRIIb [7]): 40 nM
B12: BP468 (antibody)
chain 1: B2 chain 1 with A269S, E270D, Y298D, K336T, Y398P
chain 2: not shown

Kd (human FcγRIa [8]): 3 nM
B13: BP384 (antibody)
chain 1: B2 chain 1 with A269S, E270D, Y298D, K336R, Y398P
chain 2: not shown

Kd (human FcγRIa [2]): 7 nM | Kd (human FcγRIIb [3]): 500 nM
B14: BP084 (antibody)
chain 1: B2 chain 1 with D235E, D239G, A269S, E270H, G273P, V325M, R332K, Y398P
chain 2: not shown

Kd (human FcγRIIb [4]): 100 nM
B15: BP237 (antibody)
chain 1: B2 chain 1 with L236Y, A269Q, E270D, Y298D, K328A, R332K, Y398P
chain 2: not shown

Kd (human FcγRIa [9]): 14 nM | Kd (human FcγRIIb [10]): 110 nM
B16: BP269 (antibody)
chain 1: B2 chain 1 with D235E, A269S, Y298D, R332A, Y398P
chain 2: not shown

Kd (human FcγRIIb [1]): 4 nM
B17: BP455 (antibody)
chain 1: B2 chain 1 with Y398L
chain 2: not shown

binding result (mouse FcγRIV): no binding | binding result (mouse FcγRI): no binding
B18: VH3/L(WT)-mIgG1-mF44 (antibody)
chain 1: QVQLQESGPGLVKPSETLSLTCAVSGHSISHDHAWSWVRQPPGEGLEWIGFISYSGITNYNPSLQGRVTISRDNSKNTLYLQMNSLRAEDTAVYYCARSLARTTAMDYWGEGTLVTVSSAKTTPPSVYPLAPGSAAQTNSMVTLGCLVKGYFPEPVTVTWNSGSLSSGVHTFPAVLQSDLYTLSSSVTVPSSTWPSETVTCNVAHPASSTKVDKKIVPRDCGCKPCICTVPEVSSVFIFPPKPKDVLTITLTPKVTCVVVDISKDDPEVQFSWFVDDVEVHTAQTQPREEQFNSTFRSVSELPIMHQDWLNGKEFKCRVNSADFPAPIEKTISKTKGRPKAPQVYTIPPPKEQMAKDKVSLTCMITDFFPEDITVEWQWNGQPAENYKNTQPIMDTDGSYFVYSKLNVQKSNWEAGNTFTCSVLHEGLHNHHTEKSLSHSPGK
chain 2: not shown

binding result (mouse FcγRIV): no binding | binding result (mouse FcγRI): no binding
B19: VH3/L(WT)-mIgG1-mF46 (antibody)
chain 1: B18 chain 1 with S235D
chain 2: not shown

binding result (mouse FcγRIV): no binding | binding result (mouse FcγRI): no binding
B20: VH3/L(WT)-mIgG1 (antibody)
chain 1: B18 chain 1 with D323A
chain 2: not shown

Kd (human IL-6 receptor): > 34000 nM
B21: FH4-IgG1 (antibody, V domains shown)
VH: QVQLVQSGAEVKKPGSSVKVSCKASGGTFSSYAISWVRQAPGQGLEWMGGIIPIFGTANYAQKFQGRVTITADESTSTAYMELSSLRSEDTAVYYCARERDYYDSSGYYDAFDIWGQGTMVTVSS
VL: ETTVTQSPSFLSASVGDRVTITCITTTDIDDDMNWFQQEPGKAPKLLISEGNILRPGVPSRFSSSGYGTDFTLTISKLQPEDFATYYCLQSDNLPFTFGQGTKLEIKR
